Measured values: the supplement of paper PMC10065799, “High-throughput profiling of sequence recognition by tyrosine kinases and SH2 domains using bacterial peptide display” (eLife, 2023)

The sequences below were run against EPHB2 (UniProt P29323) (assay: phosphorylation enrichment, bacterial display (enrichment ratio); higher = better substrate or ligand; peptides without Tyr show the background).
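Note: 11-residue human phosphosite peptides and single-mutation variants displayed on the E. coli surface, counted by deep sequencing, each peptide's frequency after selection divided by its frequency in the unselected input library; frequency after pTyr selection over input frequency; kinase dosed for 20-30% of maximal phosphorylation in three min.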

Sequence of EPHB2 (P29323 whole entry, looked up): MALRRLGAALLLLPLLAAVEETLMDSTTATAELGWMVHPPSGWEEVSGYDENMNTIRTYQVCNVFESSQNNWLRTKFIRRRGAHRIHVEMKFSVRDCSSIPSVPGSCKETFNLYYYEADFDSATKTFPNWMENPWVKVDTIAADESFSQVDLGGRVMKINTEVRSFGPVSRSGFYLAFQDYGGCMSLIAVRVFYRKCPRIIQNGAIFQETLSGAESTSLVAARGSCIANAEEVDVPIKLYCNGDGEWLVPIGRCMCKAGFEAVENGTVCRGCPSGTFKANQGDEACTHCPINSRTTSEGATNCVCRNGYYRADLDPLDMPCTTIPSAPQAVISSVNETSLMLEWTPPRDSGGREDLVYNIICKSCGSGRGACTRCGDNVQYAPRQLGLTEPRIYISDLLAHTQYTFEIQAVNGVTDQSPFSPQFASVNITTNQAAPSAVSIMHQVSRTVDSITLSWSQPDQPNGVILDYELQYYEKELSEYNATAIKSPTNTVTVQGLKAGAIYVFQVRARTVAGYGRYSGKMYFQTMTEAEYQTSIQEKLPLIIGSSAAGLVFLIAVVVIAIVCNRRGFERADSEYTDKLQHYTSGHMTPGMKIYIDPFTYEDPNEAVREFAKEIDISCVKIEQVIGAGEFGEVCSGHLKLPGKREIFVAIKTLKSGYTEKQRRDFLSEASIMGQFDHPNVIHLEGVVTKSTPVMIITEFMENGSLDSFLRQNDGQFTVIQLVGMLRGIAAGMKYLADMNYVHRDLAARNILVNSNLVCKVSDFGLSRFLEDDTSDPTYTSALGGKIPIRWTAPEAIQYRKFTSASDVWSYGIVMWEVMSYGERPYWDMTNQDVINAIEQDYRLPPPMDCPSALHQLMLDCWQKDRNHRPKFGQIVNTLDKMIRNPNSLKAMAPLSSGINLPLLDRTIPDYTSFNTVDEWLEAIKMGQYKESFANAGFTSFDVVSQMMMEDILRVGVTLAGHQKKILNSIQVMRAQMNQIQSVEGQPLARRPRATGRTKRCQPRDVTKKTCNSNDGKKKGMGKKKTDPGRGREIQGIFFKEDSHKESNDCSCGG

In order of rising phosphorylation enrichment:
1. AERKLYSGAQT [ZAP70_Y178]  0.295
2. GRVLGYGAFGK [FLT4_Y853]  0.354
3. FLNSSYINIST [IL23R_Y178_T175N_YF]  0.368
4. FPPDGYSRHFE [CTNND1_Y213_YF]  0.373
5. FADIAYSFRHG [PAH_Y166_N167S_YF]  0.383
6. GLNKGYRMVVN [HINT1_Y94]  0.392
7. KKIMGYSIRTI [IDS_Y490_I485K]  0.405
8. FMKEPYIQSRF [HIPK4_Y175_V171M_YF]  0.412
9. SVSNNYIQTLG [CTNND1_Y174]  0.426
10. WIPIQYPIISE [NOG_Y222]  0.439
11. TRVMEYISRLD [CLTCL1_Y1043]  0.449
12. LGNFNYEQRGA [API5_Y497]  0.456
13. NDLMEYAKQHG [ASS1_Y163]  0.471
14. FDKPVYQKTTE [LDLR_Y828_N825K]  0.475
15. EFLQKYKGFKI [SYNE1_Y6953_YF]  0.477
16. SDVCMYRKNIF [SYNE2_Y570_YF]  0.479
17. GGDAVYTNGTI [RFX2_Y82_A86T]  0.488
18. TRSFDYTEGGD [FGF7_Y58_M59T_YF]  0.519
19. SASRSYSRSRS [SRRM4_Y549]  0.521
20. EYKDAYKFAAD [BRDT_Y335]  0.553
21. PPKFFDTRKLL [CYBB_Y41_Y41D]  0.556
22. KLSHLYQDHMQ [WNT5A_Y86_C83S]  0.579
23. AELVPYFMEHH [PTPN11_Y80_Q79P_YF]  0.602
24. TLKDVCDDGKY [RPS6KA3_Y483_Y483C]  0.624
25. TVHCDYLNISH [TAF1L_Y1385_P1389S]  0.634
26. VTQEQYELYCE [CBL_Y368]  0.71
27. IQSAKYDMAED [TTC21B_Y1213]  0.724
28. QRVLLYVQRET [GRHL3_Y518_R520Q]  0.763
29. GENTMYAQVFN [LY9_Y603]  0.787
30. QKDTFYGLRSL [IGSF10_Y126]  0.927
31. PIAPVYAPSMV [ACAT1_Y331_A333P]  2.72
32. EYFDGYWGYSV [ITGA2B_Y265]  9.3
33. PSAELYSYALP [PDGFRB_Y716_N718Y]  21.2

Each sequence was assayed against Fes (UniProt P07332) in the same assay as above.
Sequence of Fes (P07332 whole entry, looked up): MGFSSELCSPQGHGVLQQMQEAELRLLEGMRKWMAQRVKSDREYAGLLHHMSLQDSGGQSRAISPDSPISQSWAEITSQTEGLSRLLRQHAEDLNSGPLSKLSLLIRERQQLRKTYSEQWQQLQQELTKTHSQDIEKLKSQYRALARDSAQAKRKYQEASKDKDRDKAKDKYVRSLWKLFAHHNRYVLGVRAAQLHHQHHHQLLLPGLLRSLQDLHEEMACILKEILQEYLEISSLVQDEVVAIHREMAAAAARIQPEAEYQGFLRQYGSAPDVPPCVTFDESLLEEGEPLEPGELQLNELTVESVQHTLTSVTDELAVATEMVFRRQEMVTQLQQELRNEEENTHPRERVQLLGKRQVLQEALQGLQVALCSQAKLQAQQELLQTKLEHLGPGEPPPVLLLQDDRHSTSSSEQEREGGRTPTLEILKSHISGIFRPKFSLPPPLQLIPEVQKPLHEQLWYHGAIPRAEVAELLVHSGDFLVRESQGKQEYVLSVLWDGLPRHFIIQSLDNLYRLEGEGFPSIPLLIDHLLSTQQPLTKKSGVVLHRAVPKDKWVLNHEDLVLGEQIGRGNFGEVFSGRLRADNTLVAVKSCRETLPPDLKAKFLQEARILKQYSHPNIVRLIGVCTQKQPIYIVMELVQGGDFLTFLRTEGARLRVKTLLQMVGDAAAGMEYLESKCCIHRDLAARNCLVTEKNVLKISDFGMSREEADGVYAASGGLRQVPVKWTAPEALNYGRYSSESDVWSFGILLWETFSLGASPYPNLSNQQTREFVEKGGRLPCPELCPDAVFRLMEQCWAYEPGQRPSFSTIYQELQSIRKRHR

In order of falling phosphorylation enrichment:
1. PSAELYSYALP [PDGFRB_Y716_N718Y]  1.92
2. QRVLLYVQRET [GRHL3_Y518_R520Q]  1.89
3. PIAPVYAPSMV [ACAT1_Y331_A333P]  1.67
4. EYFDGYWGYSV [ITGA2B_Y265]  1.42
5. VTQEQYELYCE [CBL_Y368]  1.32
6. IQSAKYDMAED [TTC21B_Y1213]  1.21
7. TLKDVCDDGKY [RPS6KA3_Y483_Y483C]  1.2
8. TRSFDYTEGGD [FGF7_Y58_M59T_YF]  1.19
9. AELVPYFMEHH [PTPN11_Y80_Q79P_YF]  1.15
10. EYKDAYKFAAD [BRDT_Y335]  1.14
11. SDVCMYRKNIF [SYNE2_Y570_YF]  1.12
12. QKDTFYGLRSL [IGSF10_Y126]  1.12
13. TVHCDYLNISH [TAF1L_Y1385_P1389S]  1.04
14. LGNFNYEQRGA [API5_Y497]  0.986
15. GENTMYAQVFN [LY9_Y603]  0.968
16. NDLMEYAKQHG [ASS1_Y163]  0.896
17. KLSHLYQDHMQ [WNT5A_Y86_C83S]  0.844
18. GGDAVYTNGTI [RFX2_Y82_A86T]  0.836
19. WIPIQYPIISE [NOG_Y222]  0.807
20. EFLQKYKGFKI [SYNE1_Y6953_YF]  0.752
21. FLNSSYINIST [IL23R_Y178_T175N_YF]  0.746
22. FDKPVYQKTTE [LDLR_Y828_N825K]  0.739
23. GLNKGYRMVVN [HINT1_Y94]  0.696
24. TRVMEYISRLD [CLTCL1_Y1043]  0.694
25. FPPDGYSRHFE [CTNND1_Y213_YF]  0.676
26. FADIAYSFRHG [PAH_Y166_N167S_YF]  0.674
27. SVSNNYIQTLG [CTNND1_Y174]  0.658
28. FMKEPYIQSRF [HIPK4_Y175_V171M_YF]  0.643
29. PPKFFDTRKLL [CYBB_Y41_Y41D]  0.639
30. SASRSYSRSRS [SRRM4_Y549]  0.594
31. KKIMGYSIRTI [IDS_Y490_I485K]  0.571
32. GRVLGYGAFGK [FLT4_Y853]  0.57
33. AERKLYSGAQT [ZAP70_Y178]  0.536

The sequences below were run on Fer (mouse) in the same assay as above.

In order of rising phosphorylation enrichment:
1. FMKEPYIQSRF [HIPK4_Y175_V171M_YF]  0.275
2. GLNKGYRMVVN [HINT1_Y94]  0.318
3. FPPDGYSRHFE [CTNND1_Y213_YF]  0.349
4. TRVMEYISRLD [CLTCL1_Y1043]  0.353
5. SDVCMYRKNIF [SYNE2_Y570_YF]  0.354
6. AERKLYSGAQT [ZAP70_Y178]  0.358
7. FLNSSYINIST [IL23R_Y178_T175N_YF]  0.367
8. GRVLGYGAFGK [FLT4_Y853]  0.371
9. FADIAYSFRHG [PAH_Y166_N167S_YF]  0.393
10. KKIMGYSIRTI [IDS_Y490_I485K]  0.394
11. LGNFNYEQRGA [API5_Y497]  0.408
12. EFLQKYKGFKI [SYNE1_Y6953_YF]  0.433
13. SVSNNYIQTLG [CTNND1_Y174]  0.451
14. FDKPVYQKTTE [LDLR_Y828_N825K]  0.451
15. TLKDVCDDGKY [RPS6KA3_Y483_Y483C]  0.456
16. GGDAVYTNGTI [RFX2_Y82_A86T]  0.464
17. QKDTFYGLRSL [IGSF10_Y126]  0.474
18. IQSAKYDMAED [TTC21B_Y1213]  0.503
19. SASRSYSRSRS [SRRM4_Y549]  0.505
20. WIPIQYPIISE [NOG_Y222]  0.508
21. AELVPYFMEHH [PTPN11_Y80_Q79P_YF]  0.515
22. NDLMEYAKQHG [ASS1_Y163]  0.541
23. TVHCDYLNISH [TAF1L_Y1385_P1389S]  0.546
24. EYKDAYKFAAD [BRDT_Y335]  0.559
25. TRSFDYTEGGD [FGF7_Y58_M59T_YF]  0.572
26. KLSHLYQDHMQ [WNT5A_Y86_C83S]  0.647
27. QRVLLYVQRET [GRHL3_Y518_R520Q]  0.885
28. VTQEQYELYCE [CBL_Y368]  0.887
29. PPKFFDTRKLL [CYBB_Y41_Y41D]  0.941
30. EYFDGYWGYSV [ITGA2B_Y265]  1.4
31. GENTMYAQVFN [LY9_Y603]  5.6
32. PIAPVYAPSMV [ACAT1_Y331_A333P]  16.1
33. PSAELYSYALP [PDGFRB_Y716_N718Y]  25.8

The sequences below were run against FGFR3 (UniProt P22607) in the same assay as above.
Sequence of FGFR3 (P22607 whole entry, looked up): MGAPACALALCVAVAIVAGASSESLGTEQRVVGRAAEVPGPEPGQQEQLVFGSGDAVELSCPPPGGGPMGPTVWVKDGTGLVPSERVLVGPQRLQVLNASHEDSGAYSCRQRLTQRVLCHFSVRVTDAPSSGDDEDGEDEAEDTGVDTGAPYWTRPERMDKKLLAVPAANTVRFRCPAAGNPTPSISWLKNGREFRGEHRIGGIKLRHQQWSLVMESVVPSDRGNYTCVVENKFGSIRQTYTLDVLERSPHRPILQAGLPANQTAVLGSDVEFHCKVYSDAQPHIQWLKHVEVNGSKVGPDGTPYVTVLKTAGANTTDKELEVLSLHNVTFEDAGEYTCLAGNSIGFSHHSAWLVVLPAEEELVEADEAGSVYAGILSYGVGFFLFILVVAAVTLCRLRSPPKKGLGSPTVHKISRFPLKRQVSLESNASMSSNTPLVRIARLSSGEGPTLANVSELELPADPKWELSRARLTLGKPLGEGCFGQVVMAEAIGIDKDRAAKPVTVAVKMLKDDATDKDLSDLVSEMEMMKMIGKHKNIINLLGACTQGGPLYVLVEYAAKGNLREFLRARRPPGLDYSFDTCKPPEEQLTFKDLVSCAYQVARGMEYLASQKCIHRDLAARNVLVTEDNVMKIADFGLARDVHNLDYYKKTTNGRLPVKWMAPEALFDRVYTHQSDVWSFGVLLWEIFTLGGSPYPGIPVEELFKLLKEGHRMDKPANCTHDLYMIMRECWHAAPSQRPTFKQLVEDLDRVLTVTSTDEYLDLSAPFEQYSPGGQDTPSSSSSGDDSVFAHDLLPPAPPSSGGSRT

In order of falling phosphorylation enrichment:
1. EYFDGYWGYSV [ITGA2B_Y265]  13.7
2. PSAELYSYALP [PDGFRB_Y716_N718Y]  10
3. TVHCDYLNISH [TAF1L_Y1385_P1389S]  1.69
4. PIAPVYAPSMV [ACAT1_Y331_A333P]  1.22
5. QRVLLYVQRET [GRHL3_Y518_R520Q]  1.13
6. VTQEQYELYCE [CBL_Y368]  0.894
7. IQSAKYDMAED [TTC21B_Y1213]  0.793
8. SDVCMYRKNIF [SYNE2_Y570_YF]  0.712
9. KLSHLYQDHMQ [WNT5A_Y86_C83S]  0.703
10. FLNSSYINIST [IL23R_Y178_T175N_YF]  0.676
11. EYKDAYKFAAD [BRDT_Y335]  0.632
12. TRSFDYTEGGD [FGF7_Y58_M59T_YF]  0.625
13. AELVPYFMEHH [PTPN11_Y80_Q79P_YF]  0.614
14. GGDAVYTNGTI [RFX2_Y82_A86T]  0.613
15. FPPDGYSRHFE [CTNND1_Y213_YF]  0.603
16. TLKDVCDDGKY [RPS6KA3_Y483_Y483C]  0.594
17. SVSNNYIQTLG [CTNND1_Y174]  0.585
18. WIPIQYPIISE [NOG_Y222]  0.571
19. FDKPVYQKTTE [LDLR_Y828_N825K]  0.57
20. NDLMEYAKQHG [ASS1_Y163]  0.563
21. QKDTFYGLRSL [IGSF10_Y126]  0.562
22. GENTMYAQVFN [LY9_Y603]  0.561
23. LGNFNYEQRGA [API5_Y497]  0.507
24. SASRSYSRSRS [SRRM4_Y549]  0.497
25. FADIAYSFRHG [PAH_Y166_N167S_YF]  0.491
26. EFLQKYKGFKI [SYNE1_Y6953_YF]  0.491
27. GRVLGYGAFGK [FLT4_Y853]  0.474
28. AERKLYSGAQT [ZAP70_Y178]  0.457
29. GLNKGYRMVVN [HINT1_Y94]  0.449
30. FMKEPYIQSRF [HIPK4_Y175_V171M_YF]  0.449
31. TRVMEYISRLD [CLTCL1_Y1043]  0.44
32. PPKFFDTRKLL [CYBB_Y41_Y41D]  0.38
33. KKIMGYSIRTI [IDS_Y490_I485K]  0.332
